Measurements from patent US20220387556A1, “USE OF THE GDF-5 MUTANT FOR THE TREATMENT OF PAIN AND CARTILAGE DESTRUCTION” (Merck Patent GmbH, priority 2019, published 2022).
Read-outs that look alike come from different tables or passages of the source.

What was measured:
rabbit ACLT+pMx OA model = assay: rabbit ACLT+pMx OA model, static incapacitance test, comparison with Triamcinolone and anti-NGF-antibody (KK-rabbit-17-01); type: in vivo, New Zealand white (NZW) rabbits
Experimental: (§1) Baseline incapacitance measurement was made 2 times prior to surgery. OA was induced by ACLT+pMx knee surgery in rabbits in the right knee joint in week 0. […] Weight bearing was measured using a contact-free static incapacitance measurement whereby plates measure pressure put on the operated and injected right hindlimb in comparison to the left unoperated hindlimb. Data are percent weight put on the right over the left hindlimb, whereby 50% corresponds to equal loading of both legs and 0% to load on the unoperated left limb only. Effect size was compared to clinically effective Triamcinolone treatment. 1.41 mg Triamcinolone correspond to human equivalent dose calculation based on metabolic body weight, synovial fluid volume and cartilage surface area.
as §1, with “Effect size was compared to clinically effective Triamcinolone treatment. 1.41 mg Triamcinolone correspond to human equivalent dose calculation based on metabolic body weight, synovial fluid volume and cartilage surface area.” left out

[1] = tested on: primary human meniscus cells; assay: NGF stimulated PGE2 release in primary human meniscus cells; type: cell-based; settings: 10 ng/ml rhNGF, 2 days; 0.1 μM Dexamethasone, 0.1 μM Triamcinolone, 375 ng/ml anti-betaNGF antibody, 300 ng/ml R399E
Experimental: Primary meniscus cells from total knee replacement surgeries were freshly prepared one day post-surgery within the frame of an ethical permission. First, skin and muscle were removed to isolate the menisci. The menisci were transferred into a 10 cm dish filled with HAM's F12+1% P/S+1% Amphotericin B. The tissue was cut into small pieces of approximately 3×3 mm and transferred into a sterile beaker for digestion. Digestion was performed for 16 h in 50 ml of a 0.4% Collagenase in HAM's F12+1% P/S+1% Amphotericin solution at 37° C., 7.5% CO2 under constant stirring. After 16 h the solution was pipetted through a 100 μm filter followed by a 40 μm filter and then centrifuged for 5 min at 1400 g. The remaining pellet, containing the cells was resuspended in 20 ml of HAM's F12+1% P/S+1% Amphotericin+10% FCS. Cell number was counted, and cell viability was determined. Finally, 10,000 cells per well were seeded in a 96 well plate. Cells were cultivated up to 1 week to reach confluency. In between medium was exchanged once. […] The effect of the individual compounds was compared to cells which were stimulated with rhNGF only. After 2 days incubation, the supernatant was removed for determination of Prostaglandin E2 (PGE2) in the medium.

BMPR-IB [2] = molecular target: T1, BMPR-IB (Homo sapiens, UniProt O00238); assay: in vitro binding affinity for BMPR-IB
T1 sequence (O00238 14-502): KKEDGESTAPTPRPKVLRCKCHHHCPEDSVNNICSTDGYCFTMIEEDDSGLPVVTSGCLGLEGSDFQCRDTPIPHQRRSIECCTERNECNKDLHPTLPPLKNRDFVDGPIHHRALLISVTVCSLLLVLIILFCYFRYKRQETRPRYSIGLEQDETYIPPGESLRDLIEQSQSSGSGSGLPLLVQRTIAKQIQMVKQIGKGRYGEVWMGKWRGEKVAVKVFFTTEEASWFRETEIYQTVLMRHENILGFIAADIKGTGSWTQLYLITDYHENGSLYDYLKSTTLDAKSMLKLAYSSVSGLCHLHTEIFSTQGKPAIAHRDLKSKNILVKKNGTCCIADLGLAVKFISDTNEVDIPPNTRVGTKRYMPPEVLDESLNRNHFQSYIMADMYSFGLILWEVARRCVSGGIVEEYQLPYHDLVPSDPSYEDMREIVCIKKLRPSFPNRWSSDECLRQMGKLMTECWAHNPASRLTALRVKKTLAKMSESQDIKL
Source text: This can be achieved by specific substitutions of one or more amino acid residues relating to a BMPR-IB and/or BMPR-IA binding site in the amino acid sequence of a GDF-5 related protein.
The binding affinity of GDF-5 related proteins having specific substitutions is compared to the binding affinity of human wild-type GDF-5 related protein, in particular human wild-type GDF-5.

BMPR-IB [3] = molecular target: T1, BMPR-IB; settings: in vitro; cited from earlier work
BMPR-IA = BMPR-IA (Homo sapiens, UniProt P36894); settings: in vitro; cited from earlier work
BMPR-IA, sequence (P36894 24-532): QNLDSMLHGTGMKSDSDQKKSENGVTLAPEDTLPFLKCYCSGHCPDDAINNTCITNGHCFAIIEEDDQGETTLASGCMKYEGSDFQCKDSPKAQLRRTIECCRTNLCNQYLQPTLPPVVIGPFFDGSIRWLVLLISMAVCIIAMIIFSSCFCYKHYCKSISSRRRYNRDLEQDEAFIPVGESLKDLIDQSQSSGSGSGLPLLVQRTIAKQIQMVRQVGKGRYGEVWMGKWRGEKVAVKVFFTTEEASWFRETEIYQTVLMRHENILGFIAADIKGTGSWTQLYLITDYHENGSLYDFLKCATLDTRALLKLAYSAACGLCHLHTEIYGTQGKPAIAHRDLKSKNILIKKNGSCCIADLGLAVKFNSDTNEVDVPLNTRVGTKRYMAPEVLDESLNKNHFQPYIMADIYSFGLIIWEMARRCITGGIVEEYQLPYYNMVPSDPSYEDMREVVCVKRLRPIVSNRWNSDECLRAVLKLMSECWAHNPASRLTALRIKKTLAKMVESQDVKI

OA patients = settings: cited from earlier work

**Q.** For `C[C@]12C=CC(=O)C=C1CC[C@H]1[C@@H]3C[C@@H](O)[C@](O)(C(=O)CO)[C@@]3(C)C[C@H](O)[C@@]12F` [Triamcinolone], which “symptomatic effect compared to placebo (incapacitance)” value (rabbit ACLT+pMx OA model; 1.41 mg IA in week 1, week 2 post surgery) is on record?
**A.** −11.6%

**Q.** What about the “effect on pain (incapacitance)” value (rabbit ACLT+pMx OA model; 1.41 mg IA once in week 1, 6 hours after injection) of the same compound?
**A.** significant effect on pain

**Q.** What about the “rhNGF induced PGE2 in the medium” value [1] of the same compound?
**A.** significantly inhibited

**Q.** What does the source list for “Wild-type GDF-5: morphogen, also known as bone morphogenetic protein-14 (BMP-14) or cartilage-derived morphogenetic protein-1 (CDMP-1)”?
**A.** fold higher affinity for BMPR-IB as compared with BMPR-IA (BMPR-IB [2]): 40- to 120 fold; Kd (BMPR-IB [3]): 0.008 to 0.027 nM; Kd (BMPR-IA): 1 to 1.1 nM

**Q.** For “tanezumab: anti-NGF (nerve growth factor) antibody (tanezumab, Pfizer) under clinical development for OA”, which “incidence of RPOA overall” value (OA patients; tanezumab 2.5 mg arm) is on record?
**A.** 3.2%

**Q.** And the “incidence of RPOA overall” value (OA patients; tanezumab 5 mg arm)?
**A.** 6.3%
